From patent US20130071921A1 (Pfizer, published 2013)
Residue numbers refer to the chain shown, from its start.

T1: Recombinant human Dkk-1 (R&D Systems cat no. 1096-DK/CF), 10xHis tag at the C terminal (human, UniProt O94907 32-266)
T1 construct: the actual N-terminus of the purified protein is marked in bold italic after residue 30, but the mark is an image lost in the text; also called rhuDkk-1; hDkk-1
T1 sequence: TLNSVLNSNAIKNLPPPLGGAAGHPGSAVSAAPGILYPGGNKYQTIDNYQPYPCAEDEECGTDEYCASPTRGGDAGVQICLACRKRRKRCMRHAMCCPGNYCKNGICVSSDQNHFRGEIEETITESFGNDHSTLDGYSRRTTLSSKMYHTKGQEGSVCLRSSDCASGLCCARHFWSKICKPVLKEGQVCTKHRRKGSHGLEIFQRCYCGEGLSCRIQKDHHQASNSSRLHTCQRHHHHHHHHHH

B1: L2.4E1 (Fab, V domains shown)
VH: EVQLVESGGGLVQPGGSLRLSCAASGFTFSSYAISWVRQAPGKGLEWVASVSGHGVWTYYPDSVKGRFTISRDNAKNSLYLQMNSLRAEDTAVYYCATSLENYAFDYWGQGTTVTVSS
VL: EIVLTQSPATLSLSPGERATLSCRASESVDDFGISFMNWYQQKPGQAPRLLIYAASKQGSGIPARFSGSGSGTDFTLTISSLEPEDFAVYYCQQSKEVPPTFGGGTKVEIK
notes: G55# and L56# read as gaps; tested as Fab (E. coli lysate, screening mode); human kappa CL and IgG2 CH1 not included here
B2: SL3.4A10 (Fab, V domains shown)
VH: EVQLVESGGGLVQPGGSLRLSCAASGFTFSSYAISWVRQAPGKGLEWVASVSGGGRTYYPDSVKGRFTISRDNAKNSLYLQMNSLRAEDTAVYYCATSLENYAFDYWGQGTTVTVSS
VL: B1 VL with K96L
notes: tested as Fab (E. coli lysate, screening mode); human kappa CL and IgG2 CH1 not included here
B3: SL3.3A10 (Fab, V domains shown)
VH: B2 VH
VL: B1 VL with V98L
notes: as for B2
B4: SL3.3H8 (Fab, V domains shown)
VH: B2 VH
VL: B1 VL with P100G
notes: as for B2
B5: SL3.4E4 (Fab, V domains shown)
VH: B2 VH
VL: B1 VL with E97D
notes: as for B2
B6: SL3.4F5 (Fab, V domains shown)
VH: B2 VH
VL: B1 VL with S95G
notes: as for B2
B7: SL3.1F11 (Fab, V domains shown)
VH: B2 VH
VL: B1 VL with K96W
notes: as for B2
B8: SL3.1F12 (Fab, V domains shown)
VH: B2 VH
VL: B1 VL with T101Y
notes: as for B2
B9: SL3.4F1 (Fab, V domains shown)
VH: B2 VH
VL: B1 VL with P100S
notes: as for B2
B10: SL3.4D1 (Fab, V domains shown)
VH: B2 VH
VL: B1 VL with K96M
notes: as for B2
B11: SL3.1G9 (Fab, V domains shown)
VH: B2 VH
VL: B1 VL with S95L
notes: as for B2
B12: SL3.1G2 (Fab, V domains shown)
VH: B2 VH
VL: B1 VL with K96I
notes: as for B2
B13: SL3.3C10 (Fab, V domains shown)
VH: B2 VH
VL: B1 VL with P99W
notes: as for B2
B14: SL3.4C7 (Fab, V domains shown)
VH: B2 VH
VL: B1 VL with Q94H
notes: as for B2
B15: SL3.3F4 (Fab, V domains shown)
VH: B2 VH
VL: B1 VL with K96S
notes: as for B2
B16: SL3.3B11 (Fab, V domains shown)
VH: B2 VH
VL: B1 VL with S95A
notes: as for B2
B17: SL3.1D2 (Fab, V domains shown)
VH: B2 VH
VL: B1 VL with T101L
notes: as for B2
B18: L2.P4.D1 (Fab, V domains shown)
VH: EVQLVESGGGLVQPGGSLRLSCAASGFTFSSYAISWVRQAPGKGLEWVASVSGTGLGFQTYYPDSVKGRFTISRDNAKNSLYLQMNSLRAEDTAVYYCATSLDNYAFDYWGQGTTVTVSS
VL: B1 VL
notes: as for B2
B19: 4E8.33L (antibody, V domains shown)
VH: B2 VH with G54W, G55L, R56D
VL: B1 VL with M37I, A55G, S95L
B20: 2E11.33L (antibody, V domains shown)
VH: B18 VH with D103R
VL: B1 VL with M37I, A55G, S95L
B21: 36H.33L (antibody, V domains shown)
VH: B2 VH with G54W, G55F, R56D, E100R
VL: B1 VL with M37I, A55G, S95L
B22: 4F10.33L (antibody, V domains shown)
VH: B18 VH with D103K
VL: B1 VL with M37I, A55G, S95L

Target: T1, Recombinant human Dkk-1 (R&D Systems …)
Test: theoretical: koff / estimated kon 1e6 1/Ms (SPR screening 37C)
Protocol: (§1) For screening assays to determine binding and dissociation rates of huMabJC18 variants to human Dkk1, either BIAcore or ProteOn XPR36 (BioRad, Inc.) systems were used. For the BIAcore assay, biotinylated-human Dkk1 was captured on SA (streptavidin) BIAcore chips according to the supplier's instructions. Biotinylated-human Dkk-1 protein was diluted into HBS-EP, and injected over the chip at a concentration of 5 μg/mL. Flow times across the individual chip channels were selected to achieve an antigen density of approximately 500-600 response units (RU). HBS-EP buffer was used as running buffer. Filtered recombinant E.coli cell lysates were injected at high temperature (37° C.) for 1 min at 30 ul/min, allowing a 1-5 min dissociation phase. Surfaces were regenerated with 8 mM NaOH+8% ethanol. A positive control Fab (clone 24) was injected twice at the start of the experiment, and again at the end of the assay to assess reproducibility.
For the ProteOn assay, biotinylated human Dkk-1 was injected for 1 min at serial fold dilutions empirically determined to yield different levels of immobilization (150-3000 RU) on five channels of a ProteOn NLC Neutravidin sensor chip. The sixth channel was left unmodified to serve as a reference surface. Recombinant Fabs in filtered E. coli lysates were injected at high temperature (37° C.) for 50 sec at 20 μl/min. Running buffer consisted of PBS+1 mg/ml BSA+0.005% Tween-20. The ProteOn is configured such that each injection flows over each of the five Dkk-1 channels as well as the reference channel, and six Fab samples can be injected simultaneously. Fab dissociation from the Dkk-1 surface was monitored for 20 min. The chip surface was regenerated with a 30-sec injection of 8% EtOH, 8 mM NaOH. Clone 24 Fab was used as control. Level of binding during association, and rate of dissociation for each clone was very consistent between different ligand channels. […]

Kd | Binder
5.51 nM | B1
7.3 nM | B2
5.72 nM | B3
22.9 nM | B4
7.7 nM | B5
7.8 nM | B6
5.4 nM | B7
5.52 nM | B8
16.9 nM | B9
7.5 nM | B10
0.947 nM | B11
8.72 nM | B12
12.1 nM | B13
7.3 nM | B14
11.8 nM | B15
12 nM | B16
4.9 nM | B17
2.88 nM | B18

Target: T1, Recombinant human Dkk-1 (R&D Systems …)
Test: SPR screening 37C (BIAcore/ProteOn), Fab lysate over biotinylated human Dkk-1
Protocol: as §1
For the ProteOn assay, biotinylated human Dkk-1 was injected for 1 min at serial fold dilutions empirically determined to yield different levels of immobilization (150-3000 RU) on five channels of a ProteOn NLC Neutravidin sensor chip. The sixth channel was left unmodified to serve as a reference surface. Recombinant Fabs in filtered E. coli lysates were injected at high temperature (37° C.) for 50 sec at 20 μl/min. Running buffer consisted of PBS+1 mg/ml BSA+0.005% Tween-20. The ProteOn is configured such that each injection flows over each of the five Dkk-1 channels as well as the reference channel, and six Fab samples can be injected simultaneously. Fab dissociation from the Dkk-1 surface was monitored for 20 min. The chip surface was regenerated with a 30-sec injection of 8% EtOH, 8 mM NaOH. Clone 24 Fab was used as control. Level of binding during association, and rate of dissociation for each clone was very consistent between different ligand channels.

koff | Binder
0.00551 s⁻¹ | B1
0.0073 s⁻¹ | B2
0.00572 s⁻¹ | B3
0.0229 s⁻¹ | B4
0.0077 s⁻¹ | B5
0.0078 s⁻¹ | B6
0.0054 s⁻¹ | B7
0.00552 s⁻¹ | B8
0.0169 s⁻¹ | B9
0.0075 s⁻¹ | B10
0.000947 s⁻¹ | B11
0.00872 s⁻¹ | B12
0.0121 s⁻¹ | B13
0.0073 s⁻¹ | B14
0.0118 s⁻¹ | B15
0.012 s⁻¹ | B16
0.0049 s⁻¹ | B17
0.00288 s⁻¹ | B18

Target: T1, Recombinant human Dkk-1 (R&D Systems …)
Test: SPR 37C (BIAcore/ProteOn), hDkk-1 series over captured IgG (taken so as kon is printed)

Kd | koff | kon | Binder
0.008 nM | 8.55e-05 s⁻¹ | 1.13e+07 M⁻¹ s⁻¹ | B19
0.03 nM | 8.55e-05 s⁻¹ | 2.88e+06 M⁻¹ s⁻¹ | B20
0.017 nM | 8.55e-05 s⁻¹ | 5.18e+06 M⁻¹ s⁻¹ | B21
0.037 nM | 8.55e-05 s⁻¹ | 2.31e+06 M⁻¹ s⁻¹ | B22
